The values below come from the supplement of paper PMC7125110.

B1: glmS ribozyme (parent)
chain: AUAAAAGCGCCAGAACUACAGAAAUGUAGUUGACGAGGAGGAGGUUUAUCGAAUUUUCGGCGGAUGCCUCCAAA

What all share (conditions): with glucosamine-6-phosphate
Data set [1] covers variants of B1. The experiment in a line: kcat; higher = faster cleavage; RNA array. In a few lines:
(§1)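 Barcoded ribozyme variants, transcribed in situ by E. coli RNA polymerase on sequenced MiSeq chips, were followed via a hybridised Cy3 probe at 37 °C. Glucosamine-6-phosphate ranged from 40 μM to 10 mM in HEPES/KCl/Mg(OAc)2 buffer. kobs came from decay fits to per-tile medians, and kcat and KM from weighted Michaelis–Menten fits.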

The variants in data set [2] derive from B1. The experiment in a line: self-cleavage kobs at 640 uM GlcN6P; higher = faster cleavage; RNA array. In short, it runs like this:
as §1

Variants of B1 are the subject of data set [3]. In words: self-cleavage kobs at 2500 uM GlcN6P; higher = faster cleavage; RNA array. In short, it runs like this: as §1
The variants in data set [4] derive from B1. The experiment in a line: self-cleavage kobs at 10000 uM GlcN6P; higher = faster cleavage; RNA array. In a few lines:
as §1

The variants in data set [5] derive from B1. The experiment in a line: KM; higher = weaker cofactor use; RNA array. In short, it runs like this: as §1
Variants of B1 are the subject of data set [6]. In words: self-cleavage kobs at 40 uM GlcN6P; higher = faster cleavage; RNA array. In a few lines:
as §1

In data set [7] the parent is B1. In words: self-cleavage kobs at 160 uM GlcN6P; higher = faster cleavage; RNA array. In short, it runs like this:
as §1

± gives the standard error. For part of these data: This sample holds only a part of the variants without activity.

As to AUAAAAGCGCCAGAACUACAGAAAUGUAGUUUACGAGGAGGAGGUUUAUCGAAUUUUCGGCGAAUGCCUCCAAA, the kcat in data set [1] is less than 1e-05 s⁻¹. Further, the “self-cleavage kobs at 640 uM GlcN6P” value in data set [2] was less than 1e-05 s⁻¹. Besides, in data set [3], the “self-cleavage kobs at 2500 uM GlcN6P” value was less than 1e-05 s⁻¹. In addition, in data set [4], the “self-cleavage kobs at 10000 uM GlcN6P” value was less than 1e-05 s⁻¹.

With AUAAAAGCGCCAGAACUACAGAAAUGUAGUUGACGAGGAGGAGGUUUAUCGAAUUAUCGGCGGAUGACUCCAAA, in data set [1], the kcat amounted to 0.00827 ± 0.0033 s⁻¹. The Michaelis constant (KM) in data set [5] worked out at 3230 ± 1600 µM. In addition, the “self-cleavage kobs at 40 uM GlcN6P” value in data set [6] was determined as 0.000132 ± 1.3e-05 s⁻¹. The “self-cleavage kobs at 160 uM GlcN6P” value in data set [7] worked out at 0.000294 ± 4.8e-05 s⁻¹. Moreover, the “self-cleavage kobs at 640 uM GlcN6P” value in data set [2] was 0.00132 ± 0.00016 s⁻¹. In addition, the “self-cleavage kobs at 2500 uM GlcN6P” value in data set [3] was 0.00323 ± 0.00075 s⁻¹. Further, the “self-cleavage kobs at 10000 uM GlcN6P” value in data set [4] was determined as 0.00678 ± 0.0011 s⁻¹.

For the variant AUAAAAGCGCCAGAUCUACAGAAAUGUAGUUGACGAGGAGGAGGCUUAUCGAAUUUUCGGCGGAUGCCUCCAAA, the kcat in data set [1] was found to be 0.000662 ± 6.5e-05 s⁻¹. In addition, in data set [5], the KM is 5870 ± 1000 µM. In addition, the “self-cleavage kobs at 640 uM GlcN6P” value in data set [2] was found to be 6.91e-05 ± 1.5e-05 s⁻¹. The “self-cleavage kobs at 2500 uM GlcN6P” value in data set [3] is 0.000187 ± 4.3e-05 s⁻¹. For the same variant, in data set [4], the “self-cleavage kobs at 10000 uM GlcN6P” value is 0.000419 ± 4.9e-05 s⁻¹.

Take AUAAAAGCGCCAGUACUACAGAAAUGUAGUCGAGGAGGAGGGGGUUAAUCAAAUUUUCGGCGGAUGCCUCAAAA: in data set [1], the kcat was less than 1e-05 s⁻¹. For the same variant, in data set [4], the “self-cleavage kobs at 10000 uM GlcN6P” value is less than 1e-05 s⁻¹.

With AUAAAAGCGCCAGAACUACAGAAAUGUAGUCGACGAGGAGGAGGUUUAUCGAAUUUUGGGCGGAUGCCUCCAAA, in data set [1], the kcat is 7.48e-05 ± 2.5e-05 s⁻¹. For the same variant, in data set [6], the “self-cleavage kobs at 40 uM GlcN6P” value was less than 1e-05 s⁻¹. Besides, in data set [2], the “self-cleavage kobs at 640 uM GlcN6P” value amounted to 2.98e-05 ± 1.3e-05 s⁻¹. Moreover, in data set [3], the “self-cleavage kobs at 2500 uM GlcN6P” value worked out at 2.91e-05 ± 1.1e-05 s⁻¹. Besides, the “self-cleavage kobs at 10000 uM GlcN6P” value in data set [4] was determined as 6.27e-05 ± 1.2e-05 s⁻¹.

Turning to AUAAAAGCGCCAGAAAUACAGAAAUGUAGUUGACGAGGAGGAGGUUUAUCGAAUUUUAGGCGGAUGCCUCCAAA, in data set [1], the kcat was 0.000107 ± 7.2e-06 s⁻¹. The KM in data set [5] was 1510 ± 430 µM. The “self-cleavage kobs at 2500 uM GlcN6P” value in data set [3] is 7.24e-05 ± 1.4e-05 s⁻¹. The “self-cleavage kobs at 10000 uM GlcN6P” value in data set [4] was 9.21e-05 ± 1.1e-05 s⁻¹.

Take AUAAAUGCGCCAGAACUACAGAAAUGUACUUGACGAGGAGGAGGUUUAUCGAAUUUUCGGCGGAUGCCUCCAAA: the catalytic constant (kcat) in data set [1] is less than 1e-05 s⁻¹. The “self-cleavage kobs at 40 uM GlcN6P” value in data set [6] was less than 1e-05 s⁻¹. Moreover, in data set [7], the “self-cleavage kobs at 160 uM GlcN6P” value was less than 1e-05 s⁻¹. In addition, the “self-cleavage kobs at 640 uM GlcN6P” value in data set [2] was less than 1e-05 s⁻¹.

As to AUAAAAGCGCCUGAACUACAGAAAUGUAGUUGACGAGGAUGAGGGUUAUCGAAUUUUCGGCGGAUGCCUCCAAA, the kcat in data set [1] came to 0.00175 ± 0.00051 s⁻¹. The “self-cleavage kobs at 40 uM GlcN6P” value in data set [6] turned out to be 0.000216 ± 3.5e-05 s⁻¹. In data set [2], the “self-cleavage kobs at 640 uM GlcN6P” value came out at 0.000743 ± 0.00024 s⁻¹. In data set [3], the “self-cleavage kobs at 2500 uM GlcN6P” value came out at 0.00239 ± 0.0011 s⁻¹. Further, the “self-cleavage kobs at 10000 uM GlcN6P” value in data set [4] was 0.00207 ± 0.00036 s⁻¹.

As for AUAAAUGCGCCAGAGCUACAGAAAUGUAGUUGACGAGGAGGAGGUUUAUCGAAUUUUCGGCGGAUGCCUCCAAA, the kcat in data set [1] turned out to be 0.000987 ± 0.00028 s⁻¹. In addition, the “self-cleavage kobs at 640 uM GlcN6P” value in data set [2] worked out at 4.1e-05 ± 1.2e-05 s⁻¹. Besides, the “self-cleavage kobs at 2500 uM GlcN6P” value in data set [3] amounted to 0.0002 ± 3.8e-05 s⁻¹. Further, the “self-cleavage kobs at 10000 uM GlcN6P” value in data set [4] was determined as 0.000441 ± 5.1e-05 s⁻¹.

With AUAAAAGCGCCAGAACUACAGAAAUGUAGUUGACGAGGAGGAGGUUUAUAGAGUUUUCGGCGGAUGCCUCCAAA, the kcat in data set [1] amounted to 2.89e-05 ± 3e-06 s⁻¹. Also, in data set [3], the “self-cleavage kobs at 2500 uM GlcN6P” value is 3.53e-05 ± 1.5e-05 s⁻¹. Also, the “self-cleavage kobs at 10000 uM GlcN6P” value in data set [4] amounted to 2.62e-05 ± 9.1e-06 s⁻¹.

On to AUAAAAGCGCCAGAACUACAGAAAUGUAGUUGACGAGGAGGAGGUAUAUCGAAUUUUCGACGGAUGCCUCCAAA, for which, in data set [1], the kcat was less than 1e-05 s⁻¹. Also, the “self-cleavage kobs at 640 uM GlcN6P” value in data set [2] is less than 1e-05 s⁻¹.

As for AUAAAAGCGACAGAACUACAGAAAUGUAGUUGACGAGGAGGAGGUUUAUCGAAAUUUCGGCGGAUGCCUCCAAA, the kcat in data set [1] was less than 1e-05 s⁻¹. Further, in data set [6], the “self-cleavage kobs at 40 uM GlcN6P” value is less than 1e-05 s⁻¹.

Turning to AUAAAAACGCCAGAACUACAGAAAUGUAGUUGAUGAGGAGGAGGUUUAUCGAAUUUUCGGCGGAUGCCUGCAAA, the kcat in data set [1] is 1.85e-05 ± 9.1e-06 s⁻¹.

Take AUAAAAGCGCCAGAACUACAGAAAUGUAUUUGACGAGGCGGAGGUUUAUCGAAUUUUCGGCGGAUGCCUCCAAA: in data set [1], the kcat was 0.00147 ± 0.00028 s⁻¹. For the same variant, the KM in data set [5] stood at 2170 ± 670 µM. For the same variant, the “self-cleavage kobs at 40 uM GlcN6P” value in data set [6] is 2.91e-05 ± 9.8e-06 s⁻¹. In data set [7], the “self-cleavage kobs at 160 uM GlcN6P” value was 8.26e-05 ± 1.4e-05 s⁻¹. The “self-cleavage kobs at 640 uM GlcN6P” value in data set [2] came out at 0.000457 ± 5.8e-05 s⁻¹. The “self-cleavage kobs at 2500 uM GlcN6P” value in data set [3] was determined as 0.000781 ± 0.0001 s⁻¹. For the same variant, in data set [4], the “self-cleavage kobs at 10000 uM GlcN6P” value was 0.00118 ± 0.00014 s⁻¹.

Consider AUAAAAGCGCUAGUACUACAGAAAUGUAGUUGACGAGGAGGAGGUUUAUCGAAUUUUCGGCGGAUGCCUCCAAA, for which the kcat in data set [1] came to 0.00134 ± 0.00035 s⁻¹. The KM in data set [5] was found to be 2130 ± 810 µM. Also, the “self-cleavage kobs at 160 uM GlcN6P” value in data set [7] came out at 9.95e-05 ± 1.2e-05 s⁻¹. Also, the “self-cleavage kobs at 640 uM GlcN6P” value in data set [2] was 0.000266 ± 3.5e-05 s⁻¹. Further, the “self-cleavage kobs at 2500 uM GlcN6P” value in data set [3] came to 0.00104 ± 0.00013 s⁻¹. Besides, in data set [4], the “self-cleavage kobs at 10000 uM GlcN6P” value amounted to 0.000984 ± 0.00014 s⁻¹.

In the case of AUAAAAGCGCCAGAACUACAGAAAUGUAGUUGACGAGGAGGAGGAUUAUCGAAAUUUCGGCGGAUGCCUCCAAA, the kcat in data set [1] came to 0.115 ± 0.045 s⁻¹. Further, the KM in data set [5] was determined as 2630 ± 1200 µM. Besides, the “self-cleavage kobs at 40 uM GlcN6P” value in data set [6] was 0.00179 ± 0.00033 s⁻¹. Moreover, the “self-cleavage kobs at 160 uM GlcN6P” value in data set [7] is 0.00611 ± 0.0017 s⁻¹. In data set [2], the “self-cleavage kobs at 640 uM GlcN6P” value was determined as 0.0204 ± 0.0069 s⁻¹. In data set [3], the “self-cleavage kobs at 2500 uM GlcN6P” value was found to be 0.122 ± 0.049 s⁻¹. Besides, the “self-cleavage kobs at 10000 uM GlcN6P” value in data set [4] is 0.0819 ± 0.035 s⁻¹.

In the case of AUAAAAGCGCCAGAACUACAGAAAUGUAGUUGACGAGGCGGAGGUUUGUCGAAUCUUCGGCGGAUGCCUCCAAA, the kcat in data set [1] is 6.53e-05 ± 4.8e-06 s⁻¹. The “self-cleavage kobs at 40 uM GlcN6P” value in data set [6] was less than 1e-05 s⁻¹. Further, the “self-cleavage kobs at 10000 uM GlcN6P” value in data set [4] was 2.91e-05 ± 1.2e-05 s⁻¹.

Turning to AUAAAAGCGCCAGAACUACAGAAAUGUAGUUGACGAGGAGGAGGUUGAUCGAAUUUUCGGCGGACGCCUCCAAA, in data set [1], the kcat was found to be 0.000283 ± 6.3e-05 s⁻¹. The “self-cleavage kobs at 640 uM GlcN6P” value in data set [2] was 7.88e-05 ± 2.3e-05 s⁻¹. Besides, in data set [3], the “self-cleavage kobs at 2500 uM GlcN6P” value came to 0.000316 ± 6.8e-05 s⁻¹. For the same variant, in data set [4], the “self-cleavage kobs at 10000 uM GlcN6P” value was 0.000232 ± 3.5e-05 s⁻¹.
